Measured values published in PMC7658645.

Legend:
Assay in all cases: dot blot (nitrocellulose filter binding)
Conditions in all cases: 5 mM Mg2+; Dot blot/aptamer blot: 20 mM Tris-HCl, 100 mM NaCl, 5 mM MgCl2, 0.1% BSA (pH not given), 50 nM aptamer in dot blot (membranes equilibrated at 4 C), blots 1 h …
[1] = target: GST (glutathione S-transferase tag) (UniProt P08515)
[2] = system: MBP (maltose-binding protein tag)
[3] = target: His-TrxA (His-tagged thioredoxin 1) (UniProt P0AA25)

For “ATACGACTCACTATTAGGGACAAAGCTGACAACCCTTTCATAATCTAACTACATTTATGTGCTAGACTACTGACTAC [G1]”, which Kd [1] is on record?
Its Kd is 59 nM.

With “ATACGACTCACTATTAGGGACCACATAAACATGCATCGCTCAATAACGGGATATTGTTGTGCTAGACTACTGACTACAA [M1]” as the sequence, how does the Kd [2] read?
The Kd was 86 nM.

Which Kd [3] does the source give for “ATACGACTCACTATTAGGGATGTCCACCATATAGATCGATTTAAGTCCCTCGTTATTAATGCTAGACTACTGACTACAA [H1]” here?
Its Kd is 173 nM.
